Test results taken from patent US8361965B2, “Recombinant chimeric protein of neutrophil inhibitory factor and hirugen, and pharmaceutical composition thereof” (Lunan Pharmaceutical Group Corporation, priority 2008, dated 2013).

Columns and labels:
[1] = test system: human peripheral blood leukocyte; assay: inhibition of H2O2 release from human peripheral blood leukocyte; type: cell-based
Protocol: 10 ml venous blood was taken from healthy people, and heparin sodium was added for anticoagulation. 10 ml HAS buffer (comprising RPMI 1640+10 mM HEPES+1.2 mM CaCl2+1.0 mM MgCl2+1% HAS, pH 7.4) was added into the blood and mixed. Leukocyte separation solution (Sangon) was charged into a sterile centrifuge tube, and whole blood mixture of the same volume was added slowly, and then centrifuged at 2000 rpm for 15 min. Leukocyte solution was taken from the interface and appropriate 1640 culture medium was added, centrifuged for 10 min, and washed twice. The supernatant was discarded, and appropriate HAS Buffer was added for resuspending the precipitate so as to prepare leukocyte suspension. The cell density was counted and adjusted to 4×10^7/ml. The product was separated at 37° C. and used within an hour.
Coating the 24-well plate with Hank's solution comprising 50% fetal bovine serum and culturing at 37 for 60 min; washing the plate with 0.15 M NaCl twice; diluting the cells to 6.0×10^6/ml with the buffer solution for release assay, adding cells, and culturing at 37 for 5 min; adding FMLP to the final concentration of 250 nM; adding TNHH samples at different concentrations and culturing at 37 for 60 min; pipetting the cell suspension, centrifuging at 8000×g for 3 min, and collecting the supernatant. Adding the supernatant into multiple-wells of a 96-well ELISA plate, adding 1 N NaOH (25 μl) for stopping the reaction, and determining the OD at 610 nm wavelength. Calculating the IC50 value of TNHH for inhibiting H2O2 release, and using the standard H2O2 solution as a control.

rabbit whole blood = assay: in vitro whole blood anticoagulation assay; set-up: species or system white rabbit; conditions: for Test results (blood coagulation): room temperature 15 min
Protocol: TNHH was diluted to 4 mg/ml, 2 mg/ml, 1 mg/ml, 0.5 mg/ml respectively with phosphate buffer solution (10 mmol/L PB, 0.15 mol/L NaCl, pH7.4). Heparin sodium was prepared to 1 mg/ml with the same buffer solution.
Venous blood was taken from marginal ear vein of the rabbit, and rapidly added into 0#-5# tubes. 0.2 ml of the diluted TNHH samples with different concentrations was added into the 1#-4# tubes, respectively. 0.2 ml phosphate buffer solution was added into the 0# tube, which was used as a negative control. 0.2 ml heparin sodium (1 mg/ml) was added into the 5# tube, which was used as a positive control. The reagents were mixed rapidly and stored at room temperature for 15 min for observing the results.

thrombin = thrombin (Homo sapiens, UniProt P00734); assay: in vitro test for reversible reaction of TNHH and thrombin (Hirudin ELISA); type: biochemical; set-up: Human thrombin (127 Unit/ampoule), Lot No.: 20021105; purchased National Institute for The Control of Pharmaceutical and Biological Products Lot No.: 20021105
Protocol: Adding 1.27 ml water into one ampoule of human thrombin, and mixing to obtain 100 Unit/ml solution; diluting the mother liquid of TNHH with water to 1.0 mg/ml, taking 0.5 ml thus obtained solution and adding 0.1 ml thrombin solution ([…] of thrombin), reacting at 37 for 2 hr, centrifuging and collecting the supernatant, diluting for 10 times with the dilution solution (taught by the instruction of IMUBIND® Hirudin ELISA Kit), repeating the dilution for 6 times at a four fold gradient, detecting according to the instruction of IMUBIND® Hirudin ELISA Kit, and determining the absorbance at 450 nm wavelength.

B1: TNHH: recombinant chimeric protein of neutrophil inhibitory factor and hirugen, Met-NIF-GGGGG-FPRPGSGG-Hirugen (SEQ ID NO: 3), expressed in E. coli (protein)
chain: MNEHNLRCPQNGTEMPGFNDSIRLQFLAMHNGYRSKLALGHISITEESESDDDDDFGFLPDFAPRASKMRYLEYDCEAEKSAYMSARNCSDSSSPPEGYDENKYIFENSNNISEAALKAMISWAKEAFNLNKTKEGEGVLYRSNHDISNFANLAWDAREKFGCAVVNCPLGEIDDETNHDGETYATTIHVVCHYPKINKTEGQPIYKVGTPCDDCSEYTKKADNTTSADPVCIPDDGVCFIGSKADYDSKEFYRFRELGGGGGFPRPGSGGNGDFEEIPEEYL
modifications: N-terminal Met
[1]; FMLP 250 nM, 60 min
  IC50 value for inhibiting H2O2 release: 8.5 µg/mL
[1]; TNHH 0.781 μg/ml
  Inhibition ratio (%): −1.3%
[1]; TNHH 1.562 μg/ml
  Inhibition ratio (%): 6.55%
[1]; TNHH 3.125 μg/ml
  Inhibition ratio (%): 22.76%
[1]; TNHH 6.25 μg/ml
  Inhibition ratio (%): 40.17%
[1]; TNHH 12.5 μg/ml
  Inhibition ratio (%): 50.82%
[1]; TNHH 25 μg/ml
  Inhibition ratio (%): 61.45%
[1]; TNHH 50 μg/ml
  Inhibition ratio (%): 79.91%
[1]; TNHH 100 μg/ml
  Inhibition ratio (%): 81.99%
[1]; concentration not given
  inhibition ratio compared with the control group: about 70%
Rabbit whole blood; 0.2 ml TNHH 0.5 mg/ml + 1.0 ml rabbit blood
  Test results (blood coagulation): coagulated
Rabbit whole blood; 0.2 ml TNHH 1 mg/ml + 1.0 ml rabbit blood
  Test results (blood coagulation): coag-
Rabbit whole blood; 0.2 ml TNHH 2 mg/ml + 1.0 ml rabbit blood
  Test results (blood coagulation): coag-
Rabbit whole blood; 0.2 ml TNHH 4 mg/ml + 1.0 ml rabbit blood
  Test results (blood coagulation): coag-
Rabbit whole blood; TNHH 0.5-4 mg/ml
  whole blood anticoagulation effects in vitro: no whole blood anticoagulation effects
Rabbit whole blood; different concentrations of TNHH (0.5-4 mg/ml)
  blood coagulation: coagulated
thrombin; 37, 2 hr, Hirudin ELISA of supernatant
  in vitro interaction with thrombin (reversibility): irreversible
thrombin; structure FPRP-GSGG-hirugen within TNHH
  hydrolysis by thrombin: could not be hydrolyzed by thrombin
